Read-outs that look alike come from different tables or passages of the source.
Key:
[1] = type: physicochemical; conditions: for t1/2 @ pH 7.4: buffer; for Rate of exenatide release: 50 μM conjugate
Protocol: Release rates were determined to be:

[2] = rat, in vivo, iv
Protocol: The solution was administered by i.v. injection to cannulated male Sprague Dawley rats at 100 μL/100 g body weight. A single animal was used for a complete time course, repeated in duplicate.
Rat serum samples were thawed on ice, and 200 μL was adjusted to pH ˜5.5 by addition of 5 μL of 2M acetic acid.
Proteins were precipitated from 50 μL of acidified rat serum by addition of 150 μL of cold MeOH containing 40 μg/mL Fmoc-Lys (DNP)OH as an internal standard for volume deviations. The samples were kept on ice for 2 hours and centrifuged at 14,000 rpm for 10 min at 4° C. The supernatant was analyzed on a Shimadzu™ HPLC with a Phenomenex® Jupiter® C18 300A 5 μm column (4.6×150 mm) at 40° C. The mobile phase consisted of H2O/0.1% TFA (Buffer A) and ACN/0.1% TFA (Buffer B) at 1 mL/min. […] Quantitation was performed by comparison of peak areas to standard solutions of mPEG-coumarin after MeOH precipitation in rat serum (Sigma-Aldrich) as above. Any volume deviations were corrected using the peak area of the Fmoc-Lys (DNP)OH internal standard in each sample.
Serum samples were treated with 2 volumes of acetonitrile (ACN) and centrifuged. The supernatant was dried, reconstituted in 1% formic acid and applied to HPLC (below). The sample was eluted by a water-ACN gradient containing 1% formic acid. […] HPLC-MS/MS analyses were carried out on a Sciex™ API-5500 mass spectrometer coupled with a Shimadzu™ HPLC system. The Shimadzu™ HPLC system consisted of two LC-30AD HPLC pumps and a SIL-30AC autosampler with a 100 μL loop installed. The chromatographic separations were achieved on a Jupiter® (Phenomenex®) 5 μm C18, 300 Å, HPLC column, 2.0×150 mm, with mobile phase gradients. The mass spectrometer was operated in positive ESI mode and the resolution setting used was unit for both Q1 and Q3. […] Peak-area integrations were performed using Analyst software (version 1.5.2) from AB Sciex™.

| Substance | t1/2 @ pH 7.4 [1] | Rate of exenatide release ([1]; pH 9.5, 100 mM sodium borate) | Rate of exenatide release ([1]; pH 8.5, 100 mM bicine) | Conjugate clearance rate [2] | Conjugate clearance t1/2 [2] | Plasma half-life of the conjugate [2] |
| --- | --- | --- | --- | --- | --- | --- |
| CH3—SO2: DBCO-Lys(DEAC)-[GL4-400] 40 kDa PEG conjugated to N-[7-azido-1-(methylsulfonyl)-2-heptyloxycarbonyl]-exenatide | 483 h | .00301 h⁻¹ |  |  |  |  |
| 4-chlorophenyl-SO2: DBCO-Lys(DEAC)-[GL4-400] 40 kDa PEG conjugated to N-[7-azido-1-(4-chlorophenylsulfonyl)-2-heptyloxycarbonyl]-exenatide | 59 h |  | .00248 h⁻¹ |  |  |  |
| Phenyl-SO2: DBCO-Lys(DEAC)-[GL4-400] 40 kDa PEG conjugated to N-[7-azido-1-(phenylsulfonyl)-2-heptyloxycarbonyl]-exenatide | 133 h | .00726 h⁻¹ |  | 0.015 h⁻¹ | 46 h | 28 h |

Source: patent US20140256626A1 (priority 2011, published 2014)
